Assay results published in PMC7251119 (2020).

B1: (His)10-MBP-DotL(656-783)–IcmSW–LvgA (complex)
chain 1: GQNEPEPVEDIVEEEVEGALTIFSKLRIDPNAPPILVADKEVFSEPLLPINETRNQMITIERLAGAKDKYAGTVANELIKDFQIATSYPPEERDVIDVQELTGIIRDLSAKISAEREKANKKAAEELT
chain 2: MERDISKCMAKIAASMNAKFYLNDRFVSFDEVFSETGLLPAIAKRADQLCSLCLGYGLGATYDESEGALLGIRVVFDEVTPNVLRLLCMTDVMNELIQGGPSRDYTPLDELMYD
chain 3: MPDLSHEASAKYWFEYLDPMIYRVITFMESVENWTLDGNPELEEAMKQLGQELDDIEKIDLGLLAEEDKFIRIVGNIKSGRGLRLLQAIDTVHPGSASRVLIHAEETSLSSSDPAGFFLKRNIVFERLRLLSRVFCQYRLKLVLRALEGDE
chain 4: MADGDIEIKAGFVDTDLDDRKLTMIDDLNNPLAIVERVYLIWWHWADFHLHVISPHIDTITPAIVIEPELIPGSNDHEFVYSIHDSGSKLSTSKSQDMFSAGMSMCKLFYTIEKMVYILVERLKSGGVSMEAEVQIAFAGHEIAQRKAFESIINLPYNVVVTNFDPGIWGEKYLQNVKRLADKGYGYPPESPRKIYMHPVSSGTTARK
B2: SetA (natural protein)
chain: MYKIYSYLGWRIDMKTENLPQAGQEAQIDKKIHFIWVGHIMPQKNIQVVSEWAEKNPGYETIIWVDKKIAPAKELDLFILDMKSKGITVKDINEEGVCRDSIRHELDQESPNYGMVSDMLRLNILAAEGGIYLDSDILCSAPFPDEIYAPFGFLLSPWSQGANNTLCNDIILCSKGNQIIQQLADAIEQSYIARDSFEFTHEYASMKETKGERIAKTLGVTGPGFLFHQLKKMGILNDKSEMEAIHWELQDQRYLIDGSVKEPDYFYVPQNNTNDASWVPSIKRPGIENMSFQERLENAVQLIAFDIQKTGLFNLDHYANELKVKQNSWCIAAETSPELKPDSYLLIRPRDKTGEWTLYYVDEDKKLNPVTLPVIKGAIKLSEVSDPLRKFHTLLSQVSDPVNPTAHELKQIGRALIELKPRQDEWHCKNKWSGAEEIAQELWQRITSNETLRAQIKQCFTQFESLKPRVAELGLTRASGAGTEVEAHESTVKEQEIISQNTVGEEGTKEKNSVQLASENSSDEKIKTAHDLIDEIIQDVIQLDGKLGLLGGNTRQLEDGRVINIPNGAAMIFDDYKKYKQGELTAESALESMIKIAKLSNQLNRHTFFNQRQPETGQFYKKVAAIDLQTTIAAEYDNNHGLRI

Tests used:
Assay in all cases: BLI
SidH(1830-2200) = SidH(1830-2200) (Legionella pneumophila, UniProt Q5ZRQ1 1830-2200)
PieA = PieA (Legionella pneumophila)
[1] = target: B1

| Binder | Kd (SidH(1830-2200)) [nM] | Kd (PieA) [nM] | Kd [1] [nM] |
| --- | --- | --- | --- |
| B1 | 570 | 230 | – |
| B2 | – | – | 920 |
